3 molecules from article PMC4787834 can be followed below.

Series [1] has as its target T1, MsmUdgX (Mycobacterium smegmatis mc2 155, UniProt A0QP43 1-209).
T1 sequence: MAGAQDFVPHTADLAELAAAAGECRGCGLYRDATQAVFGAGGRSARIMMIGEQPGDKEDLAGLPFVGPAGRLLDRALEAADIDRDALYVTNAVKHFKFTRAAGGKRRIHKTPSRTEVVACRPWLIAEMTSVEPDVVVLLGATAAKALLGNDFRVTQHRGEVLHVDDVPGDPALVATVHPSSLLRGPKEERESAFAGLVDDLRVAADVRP
Kind of series: 8 M urea-PAGE complex shift.

Series [2] has as its target T1, MsmUdgX. Kind of series: SDS-PAGE complex shift.
A further series addresses T2, MsmUdgX F4 (Mycobacterium smegmatis mc2 155, UniProt A0QP43 1-209, Q53A).
T2 sequence: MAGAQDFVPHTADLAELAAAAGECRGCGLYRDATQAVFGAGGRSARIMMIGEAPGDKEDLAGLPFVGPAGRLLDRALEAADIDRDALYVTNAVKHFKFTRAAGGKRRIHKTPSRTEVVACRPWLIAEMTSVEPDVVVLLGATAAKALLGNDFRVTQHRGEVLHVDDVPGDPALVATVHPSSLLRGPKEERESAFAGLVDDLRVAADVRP
Kind of series: 8 M urea-PAGE complex shift.

B1: SSU9:G (dsDNA)
DNA 1: CTCAAGTGUAGGCATGCAAGAGCT
DNA 2: CTTGCATGCCTGCACTTGAGTGCA
modifications: deoxyuridine at position 9 opposite G
Turning to B1, the binding result with MsmUdgX [1] is given as “binds”.
For TUTT (ssDNA, deoxyuridine at position 2; 5' phosphate) [pTUTT], in the series with MsmUdgX [2], the binding result is listed as “binds”.
As for CTCAAGTGUAGGCATGCAAGAGCT (ssDNA, deoxyuridine at position 9) [SSU9], the binding result with MsmUdgX F4 and in the series with MsmUdgX [1] was “binds” throughout.
